In patent publication US20190201542A1, “ANTI-DLL3 DRUG CONJUGATES FOR TREATING TUMORS AT RISK OF NEUROENDOCRINE TRANSITION” (ABBVIE STEMCENTRX LLC, priority 2016, published 2019):

Molecular target: T1, DLL3 (Homo sapiens, UniProt Q9NYJ7)
T1 sequence (Q9NYJ7 27-618): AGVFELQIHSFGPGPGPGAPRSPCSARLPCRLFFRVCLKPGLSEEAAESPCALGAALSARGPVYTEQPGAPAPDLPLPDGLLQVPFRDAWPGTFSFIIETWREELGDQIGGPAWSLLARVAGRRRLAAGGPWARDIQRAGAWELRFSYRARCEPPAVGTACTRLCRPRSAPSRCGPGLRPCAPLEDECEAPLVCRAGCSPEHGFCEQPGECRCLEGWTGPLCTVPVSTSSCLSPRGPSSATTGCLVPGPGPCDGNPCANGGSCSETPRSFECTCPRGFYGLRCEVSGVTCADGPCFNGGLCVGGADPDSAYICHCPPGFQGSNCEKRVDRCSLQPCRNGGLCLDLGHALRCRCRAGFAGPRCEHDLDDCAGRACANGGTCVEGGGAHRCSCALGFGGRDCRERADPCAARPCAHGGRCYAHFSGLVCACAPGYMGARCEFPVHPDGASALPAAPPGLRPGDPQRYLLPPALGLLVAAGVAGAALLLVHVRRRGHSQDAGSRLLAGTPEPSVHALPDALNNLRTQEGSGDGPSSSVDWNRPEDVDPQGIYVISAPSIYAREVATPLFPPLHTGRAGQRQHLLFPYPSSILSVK
Assay: Binning (competitive antibody binding)
From the text: It is also possible to characterize the antibodies of the invention in terms of the group or “bin” to which they belong. “Binning” refers to the use of competitive antibody binding assays to identify pairs of antibodies that are incapable of binding an immunogenic determinant simultaneously, thereby identifying antibodies that “compete” for binding. Competing antibodies may be determined by an assay in which the antibody or immunologically functional fragment being tested prevents or inhibits specific binding of a reference antibody to a common antigen. Typically, such an assay involves the use of purified antigen (e.g., DLL3, ASCL1, or a domain or fragment thereof) bound to a solid surface or cells, an unlabeled test antibody and a labeled reference antibody. Competitive inhibition is measured by determining the amount of label bound to the solid surface or cells in the presence of the test antibody. Additional details regarding methods for determining competitive binding are provided in the Examples herein. […]
A schematic summary of the domain-level epitope mapping data of the antibodies tested is presented in FIG. 2, with antibodies binding a linear epitope underlined and, where determined, the corresponding bin noted in parenthesis. […]

Binning with SC16.34 or SC16.56: not to bin with SC16.34 or SC16.56
B1: SC16.23: murine anti-DLL3 antibody (antibody, V domains shown)
VL: QIVLTQSPAIMSASPGEKVTLTCSASSSVSSRYLYWYQQKPGSSPKLWIYSTSNLASGVPARFSGSGSGTSYSLIISSMEAEDAASYFCHQWSNYPLTFGAGTKLELK
VH: QVTLKESGPGILQPSQTLSLTCSFSGFSLSTSNTGIGWIRQPSGTGLEWLAHIWWNDDKYYNPSLKSRLTISKETSNNQVFLKITNVDTADTASYFCVQIGRDYSNYAWYFDVWGAGTTVTVSS
